# Source: patent US7148021B2, “Human zona pellucida proteins and methods of their use in diagnosing male infertility” (Eastern Virginia Meical School, priority 2001, dated 2006)
# B1: rhZP3: recombinant human zona pellucida protein 3 made by human ovarian cell line PA-1, correctly glycosylated (protein, listed as Homo sapiens)
# chain: MELSYRLFICLLLWGSTELCYPQPLWLLQGGASHPETSVQPVLVECQEATLMVMVSKDLFGTGKLIRAADLTLGPEACEPLVSMDTEDVVRFEVGLHECGNSMQVTDDALVYSTFLLHDPRPVGNLSIVRTNRAEIPIECRYPRQGNVSSQAILPTWLPFRTTVFSEEKLTFSLRLMEENWNAEKRSPTFHLGDAAHLQAEIHTGSHVPLRLFVDHCVATPTPDQNASPYHTIVDFHGCLVDGLTDASSAFKVPRPGPDTLQFTVDVFHFANDSRNMIYITCHLKVTLAEQDPDELNKACSFSKPSNSWFPVEGPADICQCCNKGDCGTPSHSRRQPHVMSQWSRSASRNRRHVTEEADVTVGPLIFLDRRGDHEVEQWALPSDTSVVLLGVGLAVVVSLTLTAVILVLTRRCRTASHPVSASE
# modifications: recombinant, glycosylated, made in PA-1 cells
# notes: recombinant human zona pellucida protein 3 made by human ovarian cell line PA-1, correctly glycosylated
# Assays:
# sperm [1] = test: Weighted acrosome scoring of fluorescence-stained sperm morphology types; assay type: cell-based, human; conditions: for % of Type I (intact acrosome): column drawing 1; for % of Type II (damaged acrosome): column drawing 2; for % of Type III (equatorial segment): column drawing 3; for % of Type IV (no fluorescence in head): column drawing 4
# Excerpt: A representative example of this method is as follows. […] (See Arts et al, 1994 for further details useful for this example).
# In a second step, each type is given a score. In this example, Type I has fluorescence in the acrosomal region, indicating intact acrosome; Type II has fluorescence in a clearly damaged acrosome; Type III has fluorescence in the equatorial segment; and Type IV has no detectable fluorescence in the head. Each type, in the representative example is given a score as follow. Type I has 0 points, Type II has 1 point, Type III has 1.5 points and Type IV has 2 points. Of course different numbers of types may be scored and different weighting systems may be used, depending on knowledge of the system used and the conditions and reagents used for scoring each type. In this example, the sperm are examined under a fluorescence microscope and the percentage of each category is recorded. To determine the total AR score, the percentage of each category type is multiplied by the appropriate point and added together as shown in the equation below and in […]
# sperm [2] = test: Percentage of acrosome-reacted sperm as determined by FITC-PSA; assay type: cell-based, human; conditions: NT 30 ng/ml, calcium ionophore 5 μM, rhZP3 30 ng/ml, solubilized zona 0.5 ZP/μl, Mean (±SEM); for % Acrosome reacted-sperm: n = 29 ejaculates
# Excerpt: The acrosome reaction was studied in response to purified rhZP3, natural solubilized human ZP and the calcium ionophore.
# human sperm [3] = test: Acrosome reaction by rhZP3 after sperm capacitation time course; assay type: cell-based; conditions: 30 ng/mL, 4 hours capacitation
# Experimental: The time course study of sperm capacitation in combination with rhZP3 was evaluated. After different periods of capacitation, sperm were treated with rhZP3 (30 ng/ml) for thirty minutes to trigger the acrosome reaction. […] In many embodiments with rhZP3 an approximate 4 hour capacitation time is preferred because at this time frame the sperm are 99% alive as compared to 86%, 82% and 66% of live sperm for 8, 12 and 24 hours of capacitation time respectively. Experiments were performed after 4 hours of capacitation. The ratio of acrosome-reacted spermatozoa increased by 1.5 fold, after incubation with 30 ng/mL rhZP3, as compared to controlled conditions. This increased activity is much stronger than the increased activity produced after incubation with rhZP3 made by CHO cells. The CHO cell product induced a similar percentage of acrosome reaction in human sperm following 24-hour sperm capacitation at a dose of 15–20 ng/μl (van Duin et al, 1994).
# human sperm [4] = conditions: 30 ng/mL; cited from earlier work
# [5] = tested on: sperm-zona pellucida binding; conditions: hemizona assay; cited from earlier work
# [6] = tested on: sperm-zona pellucida binding; test: Hemizona assay, inhibition of sperm-zona pellucida binding; assay type: cell-based, human
# Excerpt: Isolation and purification procedures A wide variety of isolation and purification procedures for ZP3, ZP2, ZP1 as whole proteins, glycosylated fragments, complexes, conjugates and as fusion proteins may be used in embodiments of the invention. […] Furthermore, data were obtained that establish the ability of rhZP3 to induce the sperm acrosomal reaction. […] Each of the techniques most preferably uses a human glycosylated ZP3 and/or ZP2 and/or ZP1.
# This procedure was used to evaluate recombinant human ZP3 as described above.
# The hemizona assay is employed as a parallel assay to evaluate the binding ability of GFP-rhZP3 coated agarose beads. An aliquot of semen is processed as described above. Both sperm and artificial zona are processed as described above. For each hemizona pair, the HZI was calculated as follows: (number of test sperm bound to the hemizona/number of fertile sperm bound to hemizona)×100. […]
# A hemizona assay is to be carried out as a parallel assay to evaluate the binding ability of GFP-rhZP3 coated agarose beads. […] After capacitation, sperm sample are ready for use in a HZA. […] The number of sperm tightly bound to the outer surface are counted. For each hemizona pair, the HZI is calculated as follows: (number of test sperm bound to the hemizona/number of fertile sperm bound to hemizona)×100 (Burkman, et al.,1988). […]
Molecule,AR percentage (sperm [1]),Score Type I (0 × %) (sperm [1]),Score Type II (1 × %) (sperm [1]),Score Type III (1.5 × %) (sperm [1]),Score Type IV (2 × %) (sperm [1]),Total AR score (sperm [1]),% of Type I (intact acrosome) (sperm [1]),% of Type II (damaged acrosome) (sperm [1]),% of Type III (equatorial segment) (sperm [1]),% of Type IV (no fluorescence in head) (sperm [1]),% Sperm viability (sperm [2]),% Acrosome reacted-sperm (sperm [2]),increase of ratio of acrosome-reacted spermatozoa compared to control conditions (human sperm [3]),live acrosome-reacted sperm (human sperm [4]),minimally effective dose for sperm-zona pellucida binding inhibition [5],"hemizona index, in words [6]"
"CNc1ccc2oc(C[C@H]3O[C@@]4(CC[C@H]3C)O[C@H]([C@H](C)C(=O)c3ccc[nH]3)[C@H](C)C[C@H]4C)nc2c1C(=O)O [Calcium ionophore, reference compound]",32%,0,7,27,30,64,60%,7%,18%,15%,96.5 (2.0) %,22.5%,–,–,–,–
B1,29%,0,12,33,14,59,59%,12%,22%,7%,–,18.3%,1.5 fold,19%±4.1%,30 ng/mL,dramatically decreasing the hemizona index
